In the nanobody polyreactivity screen of Harvey et al. (2022):

Test: yeast display, Sf9 membrane polyspecificity reagent, FACS + sequencing; frameworks hold sequencing errors
In short: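 A nanobody's polyreactivity label depends on the gate it was sorted from. Yeast display cells were stained with 10% biotinylated, detergent-solubilized Sf9 membrane reagent for 1 hour at 4 °C, enriched on streptavidin microbeads and sorted by FACS. The low and high (top ~1%) gates were set on anti-HA fluorescence for expression and streptavidin fluorescence for reagent binding.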

Row | Sequence | polyreactivity (PSR sort gate)
1 | QVQLVESGGGLVQAGGSLRISCAASGRIFSYNAMGWYRQAPGKERELVAAITTGGSTYYADSVKGRFTISRDNAKNTVYLQMNSLKPEDTAVYYSIKLGYYYDRRYDYWGQGTQVNVSS | high polyreactivity
2 | QVQLVESGGGLVQAGGSLRISCAASGRTFAFYAMGRYRQAPGKERELVACISSSGDRTYYADSVKGRFTISRDNAKNTVYLQMNSLKPEDTAVYYCAARWRYTYYYWGQGTQVTVSS | high polyreactivity
3 | QVQLVESGGGLVQAGGSLRISCAASGRTFPVNAMGWYRQAPGKERELVAAITWSGDSTYYADSVKGRFTISCDNAKNTVYLQMNSLKPEDTAVYYCAAAYRYGTLYYYWGQGTQVTVSS | low polyreactivity
4 | QVQLVESGGGLVQAGGSLRISCAASGRTFPWYAMGWYRPAPGKERELVADITWSGGSTYYADSVKGRFTISRDNAKNTVYLQMNSLKPEDTAVYYCATRVLFWYRKYPGRPLTKYDYWGQGTQVTVSS | high polyreactivity
5 | QVQLVESGGGLVQAGGSLRISCAASGRTFRFYVMGWYRKAPGKERELVAAISRGGGSTYYADSVKGRFTISRDNAKNTVYLQMNSLKPEDTAVYYCNAVTSGKKYVADYNYWGQGTQVTVSS | high polyreactivity
6 | QVQLVESGGGLVQAGGSLRISCAASGRTFRTYAMGWYRQAPGKERELVAAISYSDGSTYYADSVKGRFTISRDNAKNTVYLQMNSLKPEDTAVYYCAIEYEDPYYIRYQVGYDFDYWGQGTQVTVSS | low polyreactivity
7 | QVQLVESGGGLVQAGGSLRISCAASGRTFRWYAMGWYRQAPGKERELVAAISWNGGSTYYADSVKGRFTISRDNAKNTVYLQMNSLKPEDTAVYYCAVKAGPSRPYYSWGQGTQVTVSS | high polyreactivity
8 | QVQLVESGGGLVQAGGSLRISCAASGRTFYPYAMGWYRQAPGKEREFVAAITLTGDSTYYADSVKGRFTISRDNAKNTVYLQMNSLKPEDTAVYYCNAGVGARESDYWGQGTQLTVSS | low polyreactivity
9 | QVQLVESGGGLVQAGGSLRISCAASGRTFYWYAMGWYRQAPGKERELVAAISAGGGRTYCADSVKGRFTISRDNAKNTVYLQMNSLKPEDTAVYYCAADFQRGAKYTYDFWGQGTQVTVSS | high polyreactivity
10 | QVQLVESGGGLVQAGGSLRISCAASGSICNINAMGWYRQAPGKERELVAPISQSDGSTYYADSVKGRFTISRDNAKNTVYLQMNSLKPEDTAVYYCSADAYVLFYGDWYEFDYWGQGTQVTVSS | high polyreactivity
11 | QVQLVESGGGLVQAGGSLRISCAASGSIFAWNAMGWYRQAPGKERELVAAISRSGGRTYYADSVKGRFTISRDNAKNTVYLQMNSLKPEDTAVYYCNAYGLRWASRLGYDYWGQGTQVTVSS | high polyreactivity
12 | QVQLVESGGGLVQAGGSLRISCAASGSIFEQYAMAWYRQAPGKERELVAAISKRGTSTYYAVSVKGRFTISRDNAKNTVYLQMNCLKPEDTAVYYCAATNRWYYRDAAAVYAFGYWGQGTQVTVSS | high polyreactivity
13 | QVQLVESGGGLVQAGGSLRISCAASGSIFGVYAMGWYRQAPGKERELVAAIRSGGRTYYADSVKGRFTISRDNAKNTVYLQMNSLKPEDTAVYYCNAAFSSRVGRVQFYDYDYWGQGTQVTVSW | high polyreactivity
14 | QVQLVESGGGLVQAGGSLRISCAASGSIFLSNMGWYRQAPGNERELVAAITIGGSTDYADSVKGRFTISRDNAKNTVYLQMNSLKPEDTAVYYCNADNPYSDGADSLGNYWGQGTQVTVSS | low polyreactivity
15 | QVQLVESGGGLVQAGGSLRISCAASGSIFNIYAMGWSRQAPGKERELVATITGIADSTYYADSVKGRFTISRDNAKNTVNFQMNSLKPEDTAVYYCAARRTRVTGRYSVYAFDYWGQGTQVTVSS | low polyreactivity
16 | QVQLVESGGGLVQAGGSLRISCAASGSIFRSNAMGWYRQAPGKEREMVAAISSSGGSTYYADSVKGRFTISRDNAKNTVYFQMNSLKPEDTAVYYCAAEVLSSDLFRPDSIVDYWGQGTQVNVSS | low polyreactivity
17 | QVQLVESGGGLVQAGGSLRISCAASGSIFYYYDMGWYRQAPGKERELVASISRGGRTYYADSVKGRFTISRDNAMNTVYLQMNSLKPEDTAVYYCAAGYYIRYYGIMDYWGQGTQVTVSS | high polyreactivity
18 | QVQLVESGGGLVQAGGSLRISCAASGSILVFYAMGWYRQAPGKESELVATITGSVGRTSYADSVKGRFTISRDNAKNTVYLQMNSLIPEDTAVYYCAADADTDVFYILQEYDYWGQGTQVTVSS | low polyreactivity
19 | QVQLVESGGGLVQAGGSLRISCAASGSNFSYYAMGWYRQAPGKEREFVAAISWSGGSTYYADSVKGRFTISRDNAKNTVYLQMNSLKPEDTAVYYCAAELSLSWLVPEVPYYYWGQGTQVTGSS | low polyreactivity
20 | QVQLVESGGGLVQAGGSLRISCAASGSTFANYSMGWYRQAPGKERELVAVISVRGGSTYYADSVKGRFTISRDNAKNTVYLQMNSLKPEDTAVYYCAADASGPRRYDSWGQGTQVTVSS | high polyreactivity
21 | QVQLVESGGGLVQAGGSLRISCAASGSTFDDNAMGWYRQAPGKERELVASITYRGGSTYYADSVKGRFTISRDNAKNTVYLQMNSLKPEDTAVYYCAKGHYFKYDYWGQGTQVTVSS | low polyreactivity
22 | QVQLVESGGGLVQAGGSLRISCAASGSTFDIYAMGWYRQAPGKERELVAAISNSGDTYYADSVKGRFTISRDNAKNTVYLQMNSLKPEDTAVYYCNADFHDWFDYWGQGTQVTVSS | high polyreactivity

Row | Sequence | polyreactivity (PSR sort gate)
23 | QVQLVESGGGLVQAGGSLRISCAASGSTFGPYAMGWYRPAPGKERELVAAITKSGGRTYYADSVKGRFTISRDNAKNTVYLQMNSLKPEDTAVYYCAAYGSVGLEYWGQGTQVTVSS | high polyreactivity
24 | QVQLVESGGGLVQAGGSLRISCAASGSTFQYYAMGWYRPAPGKETELVAAISDRDGGTFYADSVKGRFTISRDNAKNTVYLQMNSLKPEDTAVYYCANDAVGFRLDDNGYWGQGTQVTVSS | low polyreactivity
25 | QVQLVESGGGLVQAGGSLRISCAASGSTFSNYAMGWYRQAPGKERELVAAINSGGRTKYADSVKGRFTISRDNAKNSVYLQMNSLKPEDTAVYYCAKRIENFSGSLAGRWYDYWGQGTQVTVSS | high polyreactivity
26 | QVQLVESGGGLVQAGGSLRISCAASGSTFSSYAMGWYRQAPGKERELVAAISRSGDRTYYADSVKGRFTISRDNAEKTVYFQMNSLKPEDTAFYYCNTVYINRVTNLYDYWGQGTQVTVSS | high polyreactivity
27 | QVQLVESGGGLVQAGGSLRISCAASGSTFTTYSMGWYRQAPGKEREKVAAIRFSGGTTYYADSVKGRFTISRDNAKNTVYLQMNSLKPEDTAVYYCAAVYISRIFFGRARGDYWGQGTQVTVSS | low polyreactivity
28 | QVQLVESGGGLVQAGGSLRISCAASGSTFWTYAMGWYRQAPGKERELVAAITTGGNTYYADSVKGRFTISRDNAKNTVYLQMNSLKPEDTAVYSCAAASWTYYYSQYGAVFREYDYWGQGTEVTVSS | low polyreactivity
29 | QVQLVESGGGLVQAGGSLRISCAASGSTFYFNAMGWYRQAPGKERELVAGISSGGSTYYADSVKWRFTISRDNAKTTVYLQMNSLKPEDTAVYYCAATWLVERPFSYTEYGYWGQGTQVTVSS | low polyreactivity
30 | QVQLVESGGGLVQAGGSLRISCAASGSTFYYYAMGWYRQAPGKERELVAAISTTGGSTYYADSVKGRFTISRDNAKNTVYLQMNSLKPEDTAVYYCNAVTRYSRVRAVSSRDSEYWGQGTQVTVSS | high polyreactivity
31 | QVQLVESGGGLVQAGGSLRISCAASGSTITWYTMGWYRQAPGKERELVATIRKRGGSTYYADSVKGRFTISRDNAKNTVYLQMNSLKPEDTAVYYCNDTRLIYRFNPEEAGSTIPYDYWGQGTQVTVSS | high polyreactivity
32 | QVQLVESGGGLVQAGGSLRISCAASGSTLVGKVMGWYRQAPGKERELVADITLSGGSTYYSDSVKGRFTISRDNAKNTVYLQMNSLKPEDTAVYYCNDVFFNYLLEYDYWGQGTQVTVSS | high polyreactivity
33 | QVQLVESGGGLVQAGGSLRISCAASGYIFTGNAMGWYRKAPGKEREFVAAISWSGGSTYYADSVKGRFTISRDNAKNTVYLQMNSLKPEDTAVYYCNKYRPYGRIYHLAYGRDYWGQGTQVTVSS | high polyreactivity
34 | QVQLVESGGGLVQAGGSLRISCAAYGSIFTRYAMGWYRQAPGKERELVAAINSGGSTKYADSVKGRFTISRDNAKNSVYLQMISLKPEDTAVYYCNAGYWWYGYDYWGQGSQVTVSS | high polyreactivity
35 | QVQLVESGGGLVQAGGSLRISCAPSGRIFSYNAMGWYRPAPGKERELVAAINYSDDSTYYADSVKGRFTISRDNAKNTVYLQMNSLKPEDTAVYYCNADASSIVPSYDRPFDYWGQATQVTVSS | low polyreactivity
36 | QVQLVESGGGLVQAGGSLRISCAPSGSTFIPNDMGWYRQAPGKERELVAAITVSGDDTYYADSVKGRFTISRDNAKNNVYVQMNILKPEVTAVYYCAAEWGLYVGQYEYWGQGTQVTVSS | low polyreactivity
37 | QVQLVESGGGLVQAGGSLRISCASSGRIFAFYVMGWYRQAPGKERELVAAISIRGTRTYYADSVKGRFTISRDNAKNTVYLQMNSLKPVDTAVYYCNAVTFPHYYDYWGQGPQVTVSS | high polyreactivity
38 | QVQLVESGGGLVQAGGSLRISCASSGRIFTFYAMGWYRPAPGKERELVAAISSGGSTYYADSVKGRFTISRDNAKNTFYLQMNSLKPEDTAVYYCAAEPVWYADYDYWGQGTQVTVSS | low polyreactivity
39 | QVQLVESGGGLVQAGGSLRISCDASGRTFYVYDRGWYRQAPGKERELVAVISSSGSTNYADSVKGRFTISRDNAKNTVYLQMNSLKPEDTAVYYCNRRRWYFFSLDYWGQGTQVTVSS | high polyreactivity
40 | QVQLVESGGGLVQAGGSLRISCDASGSIFELNAMGWYRQAPGKERELVAAISSGSTYYADSVKGRFTITRDNAKNTVYLQMNSLKPVDTAVYYCAKRWRRRFVDVWSLYDYWGQCTQVTVSS | low polyreactivity
41 | QVQLVESGGGLVQAGGSLRISSAASGRTFVNYTMGWYRQAPGKERELVAAITSSGGSTYYADSVKGRFTISRDNAKNTVYLQMNSLKPEDTAVYYCASAIFDLSFWLYYWGQGTQVTVSS | low polyreactivity
42 | QVQLVESGGGLVQAGGSLRISSAASGSIFLVNALGWYRHAPGKERELVAGISDGGSTYYADSVKGRFTISRDNAKNSVYLLLICLKPEDTAVYFCAAESEQWFSYVLSYDWESDSWGQGSQVTVSS | low polyreactivity
43 | QVQLVESGGGLVQAGGSLRISSPASGSIFTLYDMGWYRQAPGKERELVSAITEDGASTYYADSVKGRFTISRDIAKNTVYLQMNSLKPEDTAYYYCAAHPTYWPVWYVLYDYWGQGTQVTLSS | low polyreactivity
